This series deals with sigmaA-RNAP holoenzyme (housekeeping RNA polymerase) (Bacillus subtilis) (UniProt P20429+P37870+P37871+P06224). Briefly: EMSA. In general terms: Mobility shift assays separate free from complexed probe on a gel.
Sequence of sigmaA-RNAP holoenzyme (housekeeping RNA polymerase) (Bacillus subtilis) (P20429 whole entry, chain 1 of 4): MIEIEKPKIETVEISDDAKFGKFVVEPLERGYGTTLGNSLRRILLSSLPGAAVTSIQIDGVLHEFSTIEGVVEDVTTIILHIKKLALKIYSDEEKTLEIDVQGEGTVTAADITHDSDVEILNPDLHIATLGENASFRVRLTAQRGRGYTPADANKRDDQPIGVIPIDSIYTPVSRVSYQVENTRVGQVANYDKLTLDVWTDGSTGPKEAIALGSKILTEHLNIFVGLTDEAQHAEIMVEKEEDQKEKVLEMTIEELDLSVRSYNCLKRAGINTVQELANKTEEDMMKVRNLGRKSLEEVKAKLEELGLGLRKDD
Sequence of sigmaA-RNAP holoenzyme (housekeeping RNA polymerase) (Bacillus subtilis) (P37870 whole entry, chain 2 of 4): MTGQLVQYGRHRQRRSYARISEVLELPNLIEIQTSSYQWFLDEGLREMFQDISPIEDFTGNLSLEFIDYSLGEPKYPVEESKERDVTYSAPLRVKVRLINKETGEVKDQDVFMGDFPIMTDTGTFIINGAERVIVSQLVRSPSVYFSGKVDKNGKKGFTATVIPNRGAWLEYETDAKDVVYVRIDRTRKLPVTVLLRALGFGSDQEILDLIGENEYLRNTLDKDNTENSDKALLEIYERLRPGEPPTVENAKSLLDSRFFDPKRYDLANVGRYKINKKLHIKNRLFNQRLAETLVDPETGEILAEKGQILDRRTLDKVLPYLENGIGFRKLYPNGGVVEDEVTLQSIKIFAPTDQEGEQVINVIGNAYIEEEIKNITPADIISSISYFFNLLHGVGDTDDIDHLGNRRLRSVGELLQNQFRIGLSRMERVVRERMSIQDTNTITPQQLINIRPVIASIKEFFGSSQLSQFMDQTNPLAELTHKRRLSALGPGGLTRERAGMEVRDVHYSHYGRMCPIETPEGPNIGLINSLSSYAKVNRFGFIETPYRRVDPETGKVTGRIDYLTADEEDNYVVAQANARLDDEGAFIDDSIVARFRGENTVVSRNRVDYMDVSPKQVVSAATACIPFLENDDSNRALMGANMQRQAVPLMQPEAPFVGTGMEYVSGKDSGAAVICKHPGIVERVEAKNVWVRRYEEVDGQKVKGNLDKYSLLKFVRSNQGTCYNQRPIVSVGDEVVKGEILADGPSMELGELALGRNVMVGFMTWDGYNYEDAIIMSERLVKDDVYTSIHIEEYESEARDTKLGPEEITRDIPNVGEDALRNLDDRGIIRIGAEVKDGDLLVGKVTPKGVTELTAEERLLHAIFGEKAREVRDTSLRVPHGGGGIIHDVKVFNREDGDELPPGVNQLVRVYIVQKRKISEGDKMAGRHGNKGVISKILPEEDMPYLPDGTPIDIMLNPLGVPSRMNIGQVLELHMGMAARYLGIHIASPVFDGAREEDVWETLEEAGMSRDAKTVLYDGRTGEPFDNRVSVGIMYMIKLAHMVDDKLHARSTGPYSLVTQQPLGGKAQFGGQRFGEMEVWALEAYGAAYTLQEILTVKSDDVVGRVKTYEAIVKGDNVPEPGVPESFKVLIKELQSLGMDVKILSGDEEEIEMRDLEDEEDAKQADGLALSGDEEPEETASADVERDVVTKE
Sequence of sigmaA-RNAP holoenzyme (housekeeping RNA polymerase) (Bacillus subtilis) (P37871 whole entry, chain 3 of 4): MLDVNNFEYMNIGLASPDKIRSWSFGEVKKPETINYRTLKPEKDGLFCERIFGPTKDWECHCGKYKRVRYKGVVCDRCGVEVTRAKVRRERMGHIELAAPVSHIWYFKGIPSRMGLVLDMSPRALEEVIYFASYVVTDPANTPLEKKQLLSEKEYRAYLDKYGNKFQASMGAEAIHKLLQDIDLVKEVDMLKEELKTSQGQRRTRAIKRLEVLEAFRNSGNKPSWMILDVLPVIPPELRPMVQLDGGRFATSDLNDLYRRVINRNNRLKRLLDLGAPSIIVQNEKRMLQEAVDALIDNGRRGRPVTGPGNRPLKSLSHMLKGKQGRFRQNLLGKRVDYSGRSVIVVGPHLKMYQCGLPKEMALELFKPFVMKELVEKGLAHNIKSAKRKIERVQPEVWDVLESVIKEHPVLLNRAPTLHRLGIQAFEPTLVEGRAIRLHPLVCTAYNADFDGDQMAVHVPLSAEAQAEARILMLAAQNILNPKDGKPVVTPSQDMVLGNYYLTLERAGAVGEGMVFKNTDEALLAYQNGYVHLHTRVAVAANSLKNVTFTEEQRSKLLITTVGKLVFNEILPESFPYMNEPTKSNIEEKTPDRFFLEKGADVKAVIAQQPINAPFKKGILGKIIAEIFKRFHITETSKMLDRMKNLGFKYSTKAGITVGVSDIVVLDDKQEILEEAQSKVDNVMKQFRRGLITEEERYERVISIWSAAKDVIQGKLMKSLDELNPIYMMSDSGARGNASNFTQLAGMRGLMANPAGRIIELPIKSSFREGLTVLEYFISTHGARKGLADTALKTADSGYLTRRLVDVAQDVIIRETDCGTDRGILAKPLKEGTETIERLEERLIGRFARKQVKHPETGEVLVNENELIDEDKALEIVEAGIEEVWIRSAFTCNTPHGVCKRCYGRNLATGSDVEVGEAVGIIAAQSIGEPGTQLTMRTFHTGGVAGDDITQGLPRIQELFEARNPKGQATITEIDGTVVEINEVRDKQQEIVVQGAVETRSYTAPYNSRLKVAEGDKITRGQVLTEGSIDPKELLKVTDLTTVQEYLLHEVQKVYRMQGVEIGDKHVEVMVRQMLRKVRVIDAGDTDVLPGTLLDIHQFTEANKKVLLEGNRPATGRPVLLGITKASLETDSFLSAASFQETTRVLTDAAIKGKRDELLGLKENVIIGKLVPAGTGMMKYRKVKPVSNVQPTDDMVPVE
Sequence of sigmaA-RNAP holoenzyme (housekeeping RNA polymerase) (Bacillus subtilis) (P06224 whole entry, chain 4 of 4): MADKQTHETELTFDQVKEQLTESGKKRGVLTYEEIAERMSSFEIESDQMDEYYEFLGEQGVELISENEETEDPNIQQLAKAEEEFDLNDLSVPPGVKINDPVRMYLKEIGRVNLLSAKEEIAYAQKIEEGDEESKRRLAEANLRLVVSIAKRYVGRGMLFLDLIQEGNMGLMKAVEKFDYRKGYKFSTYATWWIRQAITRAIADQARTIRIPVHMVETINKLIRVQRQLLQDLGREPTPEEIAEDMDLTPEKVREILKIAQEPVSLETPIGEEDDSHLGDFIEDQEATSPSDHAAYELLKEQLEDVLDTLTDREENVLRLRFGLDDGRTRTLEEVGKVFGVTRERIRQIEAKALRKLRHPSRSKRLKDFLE

Broadly, the Kd is the free concentration of one partner at which half of the binding sites on the other are occupied at equilibrium, for simple one-to-one binding. High values mean a looser complex, low ones a tighter complex. 6S-1 RNA returned a Kd of 100 nM.

In turn, 6S-2 RNA yielded a Kd of 135 nM.
